Assay results from US12297265B2, “Antibody and use thereof” (SICHUAN KELUN-BIOTECH BIOPHARMACEUTICAL CO., LTD., priority 2018, dated 2025).
Marks after values point to notes of the source that are not given here.

What was measured:
[1] = test system: Ba/F3-Claudin 18.2 cells; assay: ADCC activity on Ba/F3-Claudin 18.2 cells (NK-92MI_mCD16, CytoTox-Glo); assay type: cell-based; settings: Ba/F3-Claudin 18.2 target cells, NK-92MI_mCD16 effector cells, 6h
Experimental: In order to evaluate the ADCC activity, ten thousand Ba/F3-Claudin18.2 cells were cultured in 40 μl NK-92 media. Antibodies were serially diluted in 10 μl PBS. Fifty thousand NK-92MI_mCD16 cells in 50 μl NK-92 media were added and the reactions were incubated at 37° C. for 6h. 33.3 μl CytoTox-Glo (Promega, G9290) was added to each reaction […].

[2] = Pharmacokinetics in SCID mice; assay type: in vivo; settings: 10 mg/kg intravenously
Experimental: Blood samples were taken 8 h, 1 d, 3 d, 8 d and 15 d after injection and serum antibody concentrations were determined by Cellular ELISA as described in Example 8. […] The data of mouse serum was subjected to curve fitting.

[3] = test system: NUGC-4 cells; assay: NK cell mediated ADCC on NUGC-4 cells (LDH); assay type: cell-based, human; settings: NUGC-4 target cells, NK92MI-CD16a effector cells
Experimental: (§1) The steps were as follows: HEK293T-Claudin 18.2, L929-Claudin 18.2, KATOIII-Claudin 18.2 and NUGC-4 cells were harvested and centrifuged followed by adjustment of cell density. 1×10^4/well of cells were plated on a plate and incubated overnight. The medium was removed on the next day. NK92MI-CD16a cells (Huabo Biopharm) were centrifuged, resuspended in MEMA medium and adjusted to 1×10^6/mL, then 50 μL/well cells were added to the corresponding wells. […] For HEK293T-Claudin18.2, L929-Claudin18.2 and KATOIII-Claudin18.2 cells, ten antibody concentrations were tested, starting from 40 μg/mL with 5-fold dilution. For NUGC-4 cells, eleven antibody concentrations were tested, starting from 2 mg/mL with 5-fold dilution. 50 μL/well of the diluted antibodies were added to the corresponding wells and the reactions were left to stand in incubator at 37° C., 5% CO2 and incubated for 5.5h. Lysis buffer was then added to the positive control well and incubated for another 0.5h. 50 μL/well of Lactate Dehydrogenase (LDH) detection agent (DOJINDO LABORATORISE, CK12) were added to the wells and the absorbance at 490 nm were taken every 10 min on a plate reader (MD, SpectraMax M2). The results were imported into Graphpad Prism for curve fitting.

[4] = test system: L929-Claudin 18.2 cells; assay: NK cell mediated ADCC on L929-Claudin 18.2 cells (LDH); assay type: cell-based; settings: L929-Claudin 18.2 target cells, NK92MI-CD16a effector cells
Experimental: as §1

[5] = target: T1, human Claudin18.2 (Homo sapiens, UniProt P56856); assay: FACS affinity of chimeric antibodies to Ba/F3-Claudin18.2 cells; assay type: binding; parameters: expressed in transfected cells; host or cells: Ba/F3 (BaF/3, DSMZ ACC300), hygromycin-selected monoclonal line
From the text: The amino acid sequence of the light chain variable region of 1E9.2, 2C6.9, 6B9.22, 9C8.1, 16A9.11, 19G10.14 or 19H11.6 was linked to the amino acid sequence of the light chain constant region κ (SEQ ID NO: 43) respectively; the amino acid sequence of the heavy chain variable region was linked to the amino acid sequence of IgG1 heavy chain constant region (SEQ ID NO: 42) respectively, to construct the chimeric antibody. Codon optimized cDNA was synthesized and cloned to pcDNA3.4 (synthesized by Nanjing Genscript Biotech Corporation). The pcDNA3.4 plasmids coding the light chain and heavy chain of each antibody were co-transfected to Expi293F cells (purchased from Thermo Fisher). The antibodies were purified from culture supernatant by protein A (MabSelect SuRe, GE). And the purified chimeric antibodies were named 1E9.2-hz00, 2C6.9-hz00, 6B9.22-hz00, 9C8.1-hz00, 16A9.11-hz00, 19G10.14-hz00 and 19H11.6-hz00.
The affinity of the anti-Claudin18.2 chimeric antibodies to Ba/F3-Claudin18.2 cells were determined. […] The cells were then analyzed by FACS.

[6] = target: T1, human Claudin18.2; assay: Affinity of chimeric and humanized antibodies to Ba/F3-Claudin 18.2 cells (IntelliCyt); assay type: binding; parameters: expressed in transfected cells; host or cells: Ba/F3 (BaF/3, DSMZ ACC300), hygromycin-selected monoclonal line
From the text: In order to evaluate the anti-Claudin18.2 humanized antibodies, codon optimized cDNAs of the heavy chains and the light chains of the candidate humanized antibodies from Example 6 were synthesized and ligated into pcDNA3.4 (by Nanjing Genscript Biotech Corporation). Expi293F cells (purchased from Thermo Incorporation) were co-transfected with pcDNA3.4 coding the heavy chain and light chain of each antibody. The antibodies were purified from the supernatant using protein A (MabSelect SuRe, GE). The affinity of the humanized antibodies to Claudin18.2 was determined using Ba/F3-Claudin18.2 cells which over-expressed human Claudin18.2. Ba/F3-Claudin18.2 cells (60000 in 10 ul buffer) were incubated with purified humanized antibodies on ice for 30 min, followed by washing with buffer (PBS+2% FBS) twice and addition of Alexa647-labeled goat-anti-human IgG Fc antibody (1:500 dilution). The cells were incubated on ice for another 30 min and analyzed by IntelliCyt.

[7] = target: T1, human Claudin18.2; assay: FACS positive rate of NUGC-4 cells; assay type: binding; parameters: cell lines endogenously expressing human Claudin18.2; host or cells: NUGC-4 human gastric cancer cell line; settings: NUGC-4 cells endogenously expressing human Claudin18.2, FACS
Experimental: To determine binding affinity of the candidate antibodies to cell lines endogenously expressing human Claudin18.2, FACS analysis was performed to detect human Claudin18.2 expression level on NUGC-4 cells (purchased from Japan JCRB cell bank, catalog number: JCRB0834) which endogenously expresses human Claudin18.2. […] The binding affinity between candidate antibodies and NUGC-4 cells was then determined by Cellular ELISA following the same protocol as above.

Max MFI [5]: 8.97 ×10^6
Max MFI [6]: 4.99* ×10^6
NUGC-4 cells tested positive for Claudin 18.2 [7]: 20%
Substance: IMAB362: Zolbetuximab (IMAB362) developed by Astellas, human-mouse chimeric IgG1 antibody targeting Claudin 18.2; control antibody, sequences from CN 101312989 B [reference compound]
ADCC EC50 [1]: 0.351* μg/mL
Max killing rate [1]: 54.17* %
AUC [2]: 7391.22 µg·h/mL
Max. Cytotoxicity [3]: 35%
Max. Cytotoxicity [4]: 52%
